Measurements taken from patent US20230048633A1.

Target: recombinant HLA-E-His protein (human) (UniProt P13747)
Experiment: ELISA: the chimeric protein itself was coated in a 1:3 titration (the x axis is its coating concentration), HLA-E-His (Novus NBP2-47435PEP) was added, detected with Anti-6x-His-HRP (Abcam Ab1187)

| EC50 (read off the curve) [µg/mL] | Substance |
| --- | --- |
| 6 | hSLAMF6-Fc-NKG2A chimeric protein (from UniProt Q96DU3 22-226; P26715 94-233) (Fc fusion) |
| 5 | hTGFBR2-Fc-NKG2A chimeric protein (Fc fusion) |
